Paper PMC9150817
Read-outs that look alike come from different tables or passages of the source.

Columns and labels:
[1] = molecular target: T1, Hfq wild type (recombinant, full-length, non-tagged) (Escherichia coli, UniProt P0A6X3 1-102); assay: 2D-PAGE/immunoblot of reconstituted complex
[2] = molecular target: T1, Hfq wild type (recombinant, …); assay: 2D-PAGE/immunoblot of reconstituted complex; remark: listed apart in the source

T1 sequence (P0A6X3 whole entry): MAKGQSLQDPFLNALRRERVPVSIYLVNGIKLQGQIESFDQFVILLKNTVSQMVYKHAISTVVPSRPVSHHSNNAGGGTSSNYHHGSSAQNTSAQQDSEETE

Row | Binder | binding result [1] | binding result [2]
1 | UUUUUUUUUUUUUUUUUUUU (ssRNA) [(U)20] | binds | –
2 | AAAAAAAAAAAAAAAAAAAA (ssRNA) [(rA)20] | binds | –
3 | AAAAA (ssRNA) [(rA)5] | – | binds
